T1: HelD (recombinant B. subtilis NTPase HelD) (Bacillus subtilis (strain 168), UniProt O32215)
T1 chain: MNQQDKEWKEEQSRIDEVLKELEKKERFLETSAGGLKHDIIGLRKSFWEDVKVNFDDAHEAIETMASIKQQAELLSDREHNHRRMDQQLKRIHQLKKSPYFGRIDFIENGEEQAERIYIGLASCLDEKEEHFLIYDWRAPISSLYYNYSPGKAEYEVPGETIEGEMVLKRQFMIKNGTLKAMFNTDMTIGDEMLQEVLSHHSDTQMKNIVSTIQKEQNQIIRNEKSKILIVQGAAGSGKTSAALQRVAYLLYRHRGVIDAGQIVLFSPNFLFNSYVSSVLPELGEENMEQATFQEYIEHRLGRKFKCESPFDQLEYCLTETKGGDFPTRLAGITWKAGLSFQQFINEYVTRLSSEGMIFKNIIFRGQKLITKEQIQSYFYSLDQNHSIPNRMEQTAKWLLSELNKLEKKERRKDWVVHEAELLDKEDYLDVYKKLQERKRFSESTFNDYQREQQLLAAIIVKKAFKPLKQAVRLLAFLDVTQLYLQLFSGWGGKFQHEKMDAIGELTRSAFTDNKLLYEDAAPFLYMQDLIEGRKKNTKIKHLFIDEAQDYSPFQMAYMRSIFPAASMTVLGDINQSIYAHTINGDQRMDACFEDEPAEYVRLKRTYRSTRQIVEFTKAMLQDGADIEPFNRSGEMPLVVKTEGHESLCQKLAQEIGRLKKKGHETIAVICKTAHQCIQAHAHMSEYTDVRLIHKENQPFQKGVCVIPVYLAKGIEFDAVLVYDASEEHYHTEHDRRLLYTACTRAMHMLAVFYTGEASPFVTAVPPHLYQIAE


Columns and labels:
[1] = molecular target: T2, RNAP β′ subunit with chromosomally encoded C-terminal His10-tag (B. subtilis, UniProt P37871 1-1199); assay: co-purification; RNAP captured from lysates of stationary phase B. subtilis by the C-terminal His10-tag on β′ (Ni-NTA), then heparin column and SEC, 4 °C; content of the fractions told from gels (strains MH5636, LK782, LK1032); conditions: partners not purified
T2 construct: RNAP β′ subunit, B. subtilis; source: B. subtilis strains MH5636, LK782, LK1032; in lysate and purified as part of RNAP (Ni-NTA, heparin, SEC); not shown: His10, C-terminal, kept
T2 sequence (P37871 whole entry): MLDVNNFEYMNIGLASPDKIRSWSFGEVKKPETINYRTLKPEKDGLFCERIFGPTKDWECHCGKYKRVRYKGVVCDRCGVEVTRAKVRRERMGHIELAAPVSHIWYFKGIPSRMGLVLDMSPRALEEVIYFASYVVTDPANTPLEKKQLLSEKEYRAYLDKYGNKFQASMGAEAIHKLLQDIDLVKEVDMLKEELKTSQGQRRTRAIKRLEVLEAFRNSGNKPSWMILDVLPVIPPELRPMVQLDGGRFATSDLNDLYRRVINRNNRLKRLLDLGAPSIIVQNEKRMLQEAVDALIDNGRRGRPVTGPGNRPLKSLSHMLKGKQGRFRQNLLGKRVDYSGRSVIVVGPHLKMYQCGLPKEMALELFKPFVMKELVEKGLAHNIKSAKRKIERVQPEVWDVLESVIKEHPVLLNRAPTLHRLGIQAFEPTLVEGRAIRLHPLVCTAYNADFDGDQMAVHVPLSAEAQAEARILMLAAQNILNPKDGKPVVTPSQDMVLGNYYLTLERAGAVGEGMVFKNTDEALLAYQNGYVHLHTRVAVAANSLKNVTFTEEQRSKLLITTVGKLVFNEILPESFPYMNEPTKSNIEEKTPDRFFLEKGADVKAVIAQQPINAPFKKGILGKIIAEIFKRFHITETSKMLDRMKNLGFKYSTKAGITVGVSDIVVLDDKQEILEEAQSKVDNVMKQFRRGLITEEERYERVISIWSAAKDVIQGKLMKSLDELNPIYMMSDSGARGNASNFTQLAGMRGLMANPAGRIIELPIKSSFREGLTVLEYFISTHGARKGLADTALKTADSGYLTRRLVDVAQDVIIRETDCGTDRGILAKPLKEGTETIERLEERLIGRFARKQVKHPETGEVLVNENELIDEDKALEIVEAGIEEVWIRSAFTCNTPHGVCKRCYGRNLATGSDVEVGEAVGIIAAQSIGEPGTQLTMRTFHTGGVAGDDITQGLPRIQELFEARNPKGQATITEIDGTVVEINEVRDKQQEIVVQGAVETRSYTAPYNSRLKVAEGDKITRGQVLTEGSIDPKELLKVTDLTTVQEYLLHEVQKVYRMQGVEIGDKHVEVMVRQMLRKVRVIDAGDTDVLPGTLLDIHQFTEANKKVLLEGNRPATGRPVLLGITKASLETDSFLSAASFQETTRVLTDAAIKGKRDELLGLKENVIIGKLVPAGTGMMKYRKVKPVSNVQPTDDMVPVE

[2] = molecular target: T1, HelD (recombinant B. subtilis NTPase …); assay: analytical SEC with SDS-PAGE
[3] = molecular target: T2, RNAP β′ subunit with chromosomally …; assay: SEC; HelD release assay: the same RNAP-HelD complex mixed with 5 mM Mg^2+-ATPγS, AMPPNP or ATP in buffer I; Superdex 200 Increase PC 3.2, 4 °C; fractions on SDS-PAGE; conditions: both partners purified

Row | Binder | binding result [1] | binding result [2] | binding result [3]
1 | RNAP α subunit (natural protein, B. subtilis (endogenous), UniProt P20429 1-314, looked up, RNAP α subunit, B. subtilis; only the N-terminal domains have density in the structures; also called α1; α2; source: endogenous, B. subtilis; in lysate and purified as part of RNAP) MIEIEKPKIETVEISDDAKFGKFVVEPLERGYGTTLGNSLRRILLSSLPGAAVTSIQIDGVLHEFSTIEGVVEDVTTIILHIKKLALKIYSDEEKTLEIDVQGEGTVTAADITHDSDVEILNPDLHIATLGENASFRVRLTAQRGRGYTPADANKRDDQPIGVIPIDSIYTPVSRVSYQVENTRVGQVANYDKLTLDVWTDGSTGPKEAIALGSKILTEHLNIFVGLTDEAQHAEIMVEKEEDQKEKVLEMTIEELDLSVRSYNCLKRAGINTVQELANKTEEDMMKVRNLGRKSLEEVKAKLEELGLGLRKDD | binds | – | –
2 | δ^NTD (N-terminal domain of the RNAP δ subunit) (protein) MGIKQYSQEELKEMALVEIAHELFEEHKKPVPFQELLNEIASLLGVKKEELGDRIAQFYTDLNIDGRFLALSDQTWGLRSWYPYDQLDEE | – | no binding | –
3 | RNAP β subunit (natural protein, B. subtilis (endogenous), UniProt P37870 1-1193, looked up, RNAP β subunit, B. subtilis; source: endogenous, B. subtilis; in lysate and purified as part of RNAP) MTGQLVQYGRHRQRRSYARISEVLELPNLIEIQTSSYQWFLDEGLREMFQDISPIEDFTGNLSLEFIDYSLGEPKYPVEESKERDVTYSAPLRVKVRLINKETGEVKDQDVFMGDFPIMTDTGTFIINGAERVIVSQLVRSPSVYFSGKVDKNGKKGFTATVIPNRGAWLEYETDAKDVVYVRIDRTRKLPVTVLLRALGFGSDQEILDLIGENEYLRNTLDKDNTENSDKALLEIYERLRPGEPPTVENAKSLLDSRFFDPKRYDLANVGRYKINKKLHIKNRLFNQRLAETLVDPETGEILAEKGQILDRRTLDKVLPYLENGIGFRKLYPNGGVVEDEVTLQSIKIFAPTDQEGEQVINVIGNAYIEEEIKNITPADIISSISYFFNLLHGVGDTDDIDHLGNRRLRSVGELLQNQFRIGLSRMERVVRERMSIQDTNTITPQQLINIRPVIASIKEFFGSSQLSQFMDQTNPLAELTHKRRLSALGPGGLTRERAGMEVRDVHYSHYGRMCPIETPEGPNIGLINSLSSYAKVNRFGFIETPYRRVDPETGKVTGRIDYLTADEEDNYVVAQANARLDDEGAFIDDSIVARFRGENTVVSRNRVDYMDVSPKQVVSAATACIPFLENDDSNRALMGANMQRQAVPLMQPEAPFVGTGMEYVSGKDSGAAVICKHPGIVERVEAKNVWVRRYEEVDGQKVKGNLDKYSLLKFVRSNQGTCYNQRPIVSVGDEVVKGEILADGPSMELGELALGRNVMVGFMTWDGYNYEDAIIMSERLVKDDVYTSIHIEEYESEARDTKLGPEEITRDIPNVGEDALRNLDDRGIIRIGAEVKDGDLLVGKVTPKGVTELTAEERLLHAIFGEKAREVRDTSLRVPHGGGGIIHDVKVFNREDGDELPPGVNQLVRVYIVQKRKISEGDKMAGRHGNKGVISKILPEEDMPYLPDGTPIDIMLNPLGVPSRMNIGQVLELHMGMAARYLGIHIASPVFDGAREEDVWETLEEAGMSRDAKTVLYDGRTGEPFDNRVSVGIMYMIKLAHMVDDKLHARSTGPYSLVTQQPLGGKAQFGGQRFGEMEVWALEAYGAAYTLQEILTVKSDDVVGRVKTYEAIVKGDNVPEPGVPESFKVLIKELQSLGMDVKILSGDEEEIEMRDLEDEEDAKQADGLALSGDEEPEETASADVERDVVTKE | binds | – | –
4 | RNAP δ subunit, endogenous (natural protein, B. subtilis (endogenous), UniProt P12464 1-173, looked up, RNAP δ subunit, B. subtilis; NTD residues 1-90, CTR residues 91-173; source: endogenous, B. subtilis MH5636 or LK782; in lysate and purified as part of RNAP) MGIKQYSQEELKEMALVEIAHELFEEHKKPVPFQELLNEIASLLGVKKEELGDRIAQFYTDLNIDGRFLALSDQTWGLRSWYPYDQLDEETQPTVKAKKKKAKKAVEEDLDLDEFEEIDEDDLDLDEVEEELDLEADDFDEEDLDEDDDDLEIEEDIIDEDDEDYDDEEEEIK | – | binds | binds

From publication PMC7749165, “The δ subunit and NTPase HelD institute a two-pronged mechanism for RNA polymerase recycling” (Nature Communications, 2020)
